This data set in a line: background-corrected fluorescence of 3'-dye-labeled ssDNA relative to brightest sequence (3'-GCGCG) (fraction); higher = brighter dye fluorescence (less quenching). Put shortly: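 By light-directed phosphoramidite synthesis, single-stranded DNA ending in a 3' Cy3 or Cy5 dye beside each of 1024 permuted pentamers was built on glass slides. Scanning at 532 or 635 nm took place before and after overnight ethylenediamine/ethanol deprotection. Data are means of 10 features per array over at least 3 syntheses. Fluorescence is corrected for unlabeled-oligo background and scaled to the brightest sequence.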

Here are results for 24 sequences from the supplement of paper PMC9428881.

± gives the standard error.

Turning to “TTTTTTGCTGCGCAGCATGATTTTTTTTTTTTTTTAATTC [CTTAA]”, the background-corrected fluorescence by setting is: (dye: Cy3 (3' terminal)) 0.419 ± 0.015; (dye: Cy5 (3' terminal)) 0.297 ± 0.018.

“TTTTTTGCTGCGCAGCATGCTTTTTTTTTTTTTTTAATTA [ATTAA]” gave a background-corrected fluorescence (dye: Cy3 (3' terminal)) of 0.564 ± 0.022 and a background-corrected fluorescence (dye: Cy5 (3' terminal)) of 0.43 ± 0.027.

On to “TTTTTTGCTGCGCATCAGCATTTTTTTTTTTTTTTAATGT [TGTAA]”, for which the background-corrected fluorescence amounted to 0.616 ± 0.033 (dye: Cy3 (3' terminal)) and 0.507 ± 0.031 (dye: Cy5 (3' terminal)).

Regarding “TTTTTTGCTGCGCATCATCATTTTTTTTTTTTTTTAATGG [GGTAA]”, the background-corrected fluorescence was determined as 0.645 ± 0.023 (dye: Cy3 (3' terminal)) and 0.51 ± 0.048 (dye: Cy5 (3' terminal)).

Take “TTTTTTGCTGCGCATCATGATTTTTTTTTTTTTTTAATGC [CGTAA]”: the background-corrected fluorescence is, setting by setting: (dye: Cy3 (3' terminal)) 0.515 ± 0.016; (dye: Cy5 (3' terminal)) 0.4 ± 0.035.

Regarding “TTTTTTGCTGCGCATCATGCTTTTTTTTTTTTTTTAATGA [AGTAA]”, the background-corrected fluorescence reads like this: (dye: Cy3 (3' terminal)) 0.634 ± 0.032; (dye: Cy5 (3' terminal)) 0.524 ± 0.03.

As for “TTTTTTGCTGCGCATGAGCATTTTTTTTTTTTTTTAATCT [TCTAA]”, the background-corrected fluorescence was 0.483 ± 0.036 (dye: Cy3 (3' terminal)) and 0.338 ± 0.02 (dye: Cy5 (3' terminal)).

Take “TTTTTTGCTGCGCATGATCATTTTTTTTTTTTTTTAATCG [GCTAA]”: the background-corrected fluorescence amounted to 0.504 ± 0.0074 (dye: Cy3 (3' terminal)) and 0.399 ± 0.026 (dye: Cy5 (3' terminal)).

For “TTTTTTGCTGCGCATGATGATTTTTTTTTTTTTTTAATCC [CCTAA]”, the background-corrected fluorescence reads like this: (dye: Cy3 (3' terminal)) 0.376 ± 0.013; (dye: Cy5 (3' terminal)) 0.29 ± 0.018.

For the sequence “TTTTTTGCTGCGCATGATGCTTTTTTTTTTTTTTTAATCA [ACTAA]”, the background-corrected fluorescence runs as follows: (dye: Cy3 (3' terminal)) 0.489 ± 0.025; (dye: Cy5 (3' terminal)) 0.382 ± 0.028.

The sequence “TTTTTTGCTGCGCATGCGCATTTTTTTTTTTTTTTAATAT [TATAA]” registered a background-corrected fluorescence (dye: Cy3 (3' terminal)) of 0.54 ± 0.022 and a background-corrected fluorescence (dye: Cy5 (3' terminal)) of 0.413 ± 0.036.

Consider “TTTTTTGCTGCGCATGCTCATTTTTTTTTTTTTTTAATAG [GATAA]”, for which the background-corrected fluorescence by setting is: (dye: Cy3 (3' terminal)) 0.535 ± 0.0083; (dye: Cy5 (3' terminal)) 0.408 ± 0.017.

“TTTTTTGCTGCGCATGCTGATTTTTTTTTTTTTTTAATAC [CATAA]” came in with a background-corrected fluorescence (dye: Cy3 (3' terminal)) of 0.453 ± 0.011 and a background-corrected fluorescence (dye: Cy5 (3' terminal)) of 0.317 ± 0.019.

On to “TTTTTTGCTGCGCATGCTGCTTTTTTTTTTTTTTTAATAA”, for which the background-corrected fluorescence is, setting by setting: (dye: Cy3 (3' terminal)) 0.578 ± 0.031; (dye: Cy5 (3' terminal)) 0.446 ± 0.022.

For “TTTTTTGCTGCTCAGCAGCATTTTTTTTTTTTTTTAAGTT [TTGAA]”, the background-corrected fluorescence by setting is: (dye: Cy3 (3' terminal)) 0.609 ± 0.021; (dye: Cy5 (3' terminal)) 0.433 ± 0.024.

For the sequence “TTTTTTGCTGCTCAGCATCATTTTTTTTTTTTTTTAAGTG [GTGAA]”, the background-corrected fluorescence is, setting by setting: (dye: Cy3 (3' terminal)) 0.587 ± 0.027; (dye: Cy5 (3' terminal)) 0.457 ± 0.042.

Turning to “TTTTTTGCTGCTCAGCATGATTTTTTTTTTTTTTTAAGTC [CTGAA]”, the background-corrected fluorescence by setting is: (dye: Cy3 (3' terminal)) 0.438 ± 0.029; (dye: Cy5 (3' terminal)) 0.349 ± 0.015.

Turning to “TTTTTTGCTGCTCAGCATGCTTTTTTTTTTTTTTTAAGTA [ATGAA]”, the background-corrected fluorescence (dye: Cy3 (3' terminal)) was 0.591 ± 0.019 and the background-corrected fluorescence (dye: Cy5 (3' terminal)) turned out to be 0.493 ± 0.074.

With “TTTTTTGCTGCTCATCAGCATTTTTTTTTTTTTTTAAGGT [TGGAA]”, the background-corrected fluorescence is 0.658 ± 0.016 (dye: Cy3 (3' terminal)) and 0.585 ± 0.052 (dye: Cy5 (3' terminal)).

For the sequence “TTTTTTGCTGCTCATCATCATTTTTTTTTTTTTTTAAGGG [GGGAA]”, the background-corrected fluorescence runs as follows: (dye: Cy3 (3' terminal)) 0.649 ± 0.021; (dye: Cy5 (3' terminal)) 0.558 ± 0.029.

“TTTTTTGCTGCTCATCATGATTTTTTTTTTTTTTTAAGGC [CGGAA]”: the background-corrected fluorescence stood at 0.6269 ± 0.0056 (dye: Cy3 (3' terminal)) and 0.492 ± 0.038 (dye: Cy5 (3' terminal)).

Sequence “TTTTTTGCTGCTCATCATGCTTTTTTTTTTTTTTTAAGGA [AGGAA]” registered a background-corrected fluorescence (dye: Cy3 (3' terminal)) of 0.779 ± 0.02 and a background-corrected fluorescence (dye: Cy5 (3' terminal)) of 0.635 ± 0.045.

As to “TTTTTTGCTGCTCATGAGCATTTTTTTTTTTTTTTAAGCT [TCGAA]”, the background-corrected fluorescence runs as follows: (dye: Cy3 (3' terminal)) 0.56 ± 0.028; (dye: Cy5 (3' terminal)) 0.402 ± 0.026.

Consider “TTTTTTGCTGCTCATGATCATTTTTTTTTTTTTTTAAGCG [GCGAA]”, for which the background-corrected fluorescence was 0.632 ± 0.033 (dye: Cy3 (3' terminal)) and 0.513 ± 0.033 (dye: Cy5 (3' terminal)).
